Reference: patent publication US20220340646A1 (OSAKA CITY UNIVERSITY, published 2022)
Substitutions are numbered along the chain they refer to. Non-standard residues stand in square brackets, D forms with d. No end group written: not given here. pT = C[C@@H](OP(=O)(O)O)[C@H](N)C(=O)O; pS = N[C@@H](COP(=O)(O)O)C(=O)O

T1: pS46 tau peptide
T1 construct: Partial peptide of tau coated on the ELISA plate
T1 peptide: GLKE[pS]P

T2: pS214 tau peptide
T2 peptide: SRSRTP[pS]LPTP

T3: pT212 tau peptide
T3 construct: Partial peptide of tau coated on the ELISA plate
T3 peptide: SRSR[pT]PSLPTP

T4: pS199 tau peptide
T4 construct: Partial peptide of tau coated on the ELISA plate
T4 peptide: SGYS[pS]PGSPG

T5: pS202 tau peptide
T5 construct: Partial peptide of tau coated on the ELISA plate
T5 peptide: SSPG[pS]SPGTPC

T6: pT212/pS214 tau peptide
T6 peptide: SRSR[pT]P[pS]LPTP

T7: pT217 tau peptide
T7 construct: Partial peptide of tau coated on the ELISA plate
T7 peptide: PSLP[pT]PPTR

B1: Ta1505 (antibody, V domains shown)
VH: EVQLVESGGGLVQPKGSLKLSCAASGFAFNSFALNWVRQAPGKSLEWVVHIRSKTNNYATFYADSVKDRFTVSRDDSQSMVYLQMNNLKTEDTGIYYCVRRGPRDSWFGYWGQGTLVTVSA
VL: DILMTQTPLSLPVSLGDQASISCRSSQNIVHSNGNTYLEWYLQKPGQSPKVLIYTVSNRFSGVPDRFSGSGSGTDFTLKISRVEAEDLGVYYCFQGSHLPLTFGGGTKL
notes: also called Ta1505-2
B2: Ta1509 (antibody, V domains shown)
VH: EVQLVESGGGLVQPKGSLKLSCAASGFAFNSFAMNWVRQAPGKGLDWIAHIRSKSNNYVTFYADSVKDRFIISRDDSQSMIYLQMNNLKTEDSGIYYCVRRGPRDSWFGYWGQGTLVTVSA
VL: B1 VL with I2V, T7S, S32T
notes: also called Ta15 Series
B3: Ta1508 (antibody, V domains shown)
VH: B2 VH with Q3H, S55T, D68G, I71S, I81V, K89Q, S93T
VL: B1 VL with D1V, I2V
notes: also called Ta15 Series
B4: Ta1506 (antibody, V domains shown)
VH: B2 VH with Q3H, G44A, S55T, D68G, I71S, I81V, K89Q, S93T
VL: B1 VL with D1G, I2V, T7I
notes: also called Ta15 Series
B5: Ta1501 (antibody, V domains shown)
VH: B1 VH with Q3H, G10E, L34M, A40T, S44G, E46N, V49A, V72I, S79N, V81L
VL: B1 VL with I2V, Q18H
notes: also called Ta15 Series
B6: Ta1502 (antibody, V domains shown)
VH: B1 VH with S79N
VL: B1 VL
notes: also called Ta15 Series
B7: Ta1507 (antibody, V domains shown)
VH: B1 VH with V2I, N30S, E46D, V49A, T55A, N57H, A59V
VL: B1 VL with I2V, M4L
notes: also called Ta15 Series

Molecular target: T1, pS46 tau peptide
Assay: peptide ELISA

| Binder | binding result |
| --- | --- |
| B1 | no binding (tested: 1 µg/mL) |
| B2 | no binding (tested: 1 µg/mL) |
| B3 | no binding (tested: 1 µg/mL) |
| B4 | no binding (tested: 1 µg/mL) |
| B5 | no binding (tested: 1 µg/mL) |
| B6 | no binding (tested: 1 µg/mL) |
| B7 | no binding (tested: 1 µg/mL) |

Molecular target: T2, pS214 tau peptide
Assay: peptide ELISA

| Binder | binding result |
| --- | --- |
| B1 | no binding (tested: 1 µg/mL) |
| B2 | no binding (tested: 1 µg/mL) |
| B3 | no binding (tested: 1 µg/mL) |
| B4 | no binding (tested: 1 µg/mL) |
| B5 | no binding (tested: 1 µg/mL) |
| B6 | no binding (tested: 1 µg/mL) |
| B7 | no binding (tested: 1 µg/mL) |

Molecular target: T3, pT212 tau peptide
Assay: peptide ELISA

| Binder | binding result |
| --- | --- |
| B1 | no binding (tested: 1 µg/mL) |
| B2 | no binding (tested: 1 µg/mL) |
| B3 | no binding (tested: 1 µg/mL) |
| B4 | no binding (tested: 1 µg/mL) |
| B5 | no binding (tested: 1 µg/mL) |
| B6 | no binding (tested: 1 µg/mL) |
| B7 | no binding (tested: 1 µg/mL) |

Molecular target: T4, pS199 tau peptide
Assay: peptide ELISA

| Binder | binding result |
| --- | --- |
| B1 | no binding (tested: 1 µg/mL) |
| B2 | no binding (tested: 1 µg/mL) |
| B3 | no binding (tested: 1 µg/mL) |
| B4 | no binding (tested: 1 µg/mL) |
| B5 | no binding (tested: 1 µg/mL) |
| B6 | no binding (tested: 1 µg/mL) |
| B7 | no binding (tested: 1 µg/mL) |

molecular target: T8, pS400-BSA (phosphorylated as its name says (pS400); conjugated to BSA); assay: peptide ELISA
T8 construct: BSA-conjugated tau peptide coated on the ELISA plate
T8 sequence (P02769 25-607 limits assumed): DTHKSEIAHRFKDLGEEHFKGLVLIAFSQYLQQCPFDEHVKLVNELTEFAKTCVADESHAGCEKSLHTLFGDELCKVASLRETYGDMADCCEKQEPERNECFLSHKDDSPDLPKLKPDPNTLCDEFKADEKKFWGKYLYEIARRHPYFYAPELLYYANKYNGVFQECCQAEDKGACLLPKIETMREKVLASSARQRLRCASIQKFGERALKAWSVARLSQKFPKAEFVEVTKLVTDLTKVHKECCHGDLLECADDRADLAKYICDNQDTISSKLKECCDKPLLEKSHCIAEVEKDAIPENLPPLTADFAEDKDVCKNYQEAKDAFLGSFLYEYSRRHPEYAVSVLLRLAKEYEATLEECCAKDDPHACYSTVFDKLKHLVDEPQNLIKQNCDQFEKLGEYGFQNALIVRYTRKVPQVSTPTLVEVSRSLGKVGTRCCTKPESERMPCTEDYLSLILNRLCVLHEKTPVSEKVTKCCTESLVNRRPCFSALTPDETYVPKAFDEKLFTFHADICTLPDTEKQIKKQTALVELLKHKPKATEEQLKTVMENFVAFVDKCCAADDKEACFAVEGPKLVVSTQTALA

| Binder | binding result |
| --- | --- |
| B1 | no binding (tested: 1 µg/mL) |
| B2 | no binding (tested: 1 µg/mL) |
| B3 | no binding (tested: 1 µg/mL) |
| B4 | no binding (tested: 1 µg/mL) |
| B5 | no binding (tested: 1 µg/mL) |
| B6 | no binding (tested: 1 µg/mL) |
| B7 | no binding (tested: 1 µg/mL) |

Molecular target: T5, pS202 tau peptide
Assay: peptide ELISA

| Binder | binding result |
| --- | --- |
| B1 | no binding (tested: 1 µg/mL) |
| B2 | no binding (tested: 1 µg/mL) |
| B3 | no binding (tested: 1 µg/mL) |
| B4 | no binding (tested: 1 µg/mL) |
| B5 | no binding (tested: 1 µg/mL) |
| B6 | no binding (tested: 1 µg/mL) |
| B7 | no binding (tested: 1 µg/mL) |

Molecular target: T6, pT212/pS214 tau peptide
Assay: peptide ELISA

| Binder | binding result |
| --- | --- |
| B1 | no binding (tested: 1 µg/mL) |
| B2 | no binding (tested: 1 µg/mL) |
| B3 | no binding (tested: 1 µg/mL) |
| B4 | no binding (tested: 1 µg/mL) |
| B5 | no binding (tested: 1 µg/mL) |
| B6 | no binding (tested: 1 µg/mL) |
| B7 | no binding (tested: 1 µg/mL) |

molecular target: T9, pS412-BSA (phosphorylated as its name says (pS412); conjugated to BSA); assay: peptide ELISA
T9 construct: BSA-conjugated tau peptide coated on the ELISA plate
T9 sequence (P02769 25-607 limits assumed): as above

| Binder | binding result |
| --- | --- |
| B1 | no binding (tested: 1 µg/mL) |
| B2 | no binding (tested: 1 µg/mL) |
| B3 | no binding (tested: 1 µg/mL) |
| B4 | no binding (tested: 1 µg/mL) |
| B5 | no binding (tested: 1 µg/mL) |
| B6 | no binding (tested: 1 µg/mL) |
| B7 | no binding (tested: 1 µg/mL) |

Molecular target: T7, pT217 tau peptide
Assay: peptide ELISA

| Binder | binding result |
| --- | --- |
| B1 | no binding (tested: 1 µg/mL) |
| B2 | no binding (tested: 1 µg/mL) |
| B3 | no binding (tested: 1 µg/mL) |
| B4 | no binding (tested: 1 µg/mL) |
| B5 | no binding (tested: 1 µg/mL) |
| B6 | no binding (tested: 1 µg/mL) |
| B7 | no binding (tested: 1 µg/mL) |

molecular target: pSer413(Im) peptide (human); assay: SPR (Biacore 3000), antibody captured by anti-mouse antibody, peptide as analyte, single cycle kinetics
Sequence (peptide, as listed by the source): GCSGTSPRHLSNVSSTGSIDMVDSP

| Binder | Kd | koff | kon |
| --- | --- | --- | --- |
| B1 | 3.87 nM | 0.000499 s⁻¹ | 129000 M⁻¹ s⁻¹ |
| B2 | 14.4 nM | 0.00125 s⁻¹ | 87100 M⁻¹ s⁻¹ |
| B3 | 6.76 nM | 0.00098 s⁻¹ | 145000 M⁻¹ s⁻¹ |
| B4 | 9.75 nM | 0.00194 s⁻¹ | 199000 M⁻¹ s⁻¹ |
| B5 | 18.6 nM | 0.00105 s⁻¹ | 56400 M⁻¹ s⁻¹ |
| B6 | 4.2 nM | 0.00047 s⁻¹ | 112000 M⁻¹ s⁻¹ |
| B7 | 4.2 nM | 0.000533 s⁻¹ | 127000 M⁻¹ s⁻¹ |
